Holding throughout (assay): pull-down
Assay [1] has as its target T1, 6xHis-tagged SPN-2 (full-length) (C. elegans, UniProt Q20898 1-761).
T1 sequence: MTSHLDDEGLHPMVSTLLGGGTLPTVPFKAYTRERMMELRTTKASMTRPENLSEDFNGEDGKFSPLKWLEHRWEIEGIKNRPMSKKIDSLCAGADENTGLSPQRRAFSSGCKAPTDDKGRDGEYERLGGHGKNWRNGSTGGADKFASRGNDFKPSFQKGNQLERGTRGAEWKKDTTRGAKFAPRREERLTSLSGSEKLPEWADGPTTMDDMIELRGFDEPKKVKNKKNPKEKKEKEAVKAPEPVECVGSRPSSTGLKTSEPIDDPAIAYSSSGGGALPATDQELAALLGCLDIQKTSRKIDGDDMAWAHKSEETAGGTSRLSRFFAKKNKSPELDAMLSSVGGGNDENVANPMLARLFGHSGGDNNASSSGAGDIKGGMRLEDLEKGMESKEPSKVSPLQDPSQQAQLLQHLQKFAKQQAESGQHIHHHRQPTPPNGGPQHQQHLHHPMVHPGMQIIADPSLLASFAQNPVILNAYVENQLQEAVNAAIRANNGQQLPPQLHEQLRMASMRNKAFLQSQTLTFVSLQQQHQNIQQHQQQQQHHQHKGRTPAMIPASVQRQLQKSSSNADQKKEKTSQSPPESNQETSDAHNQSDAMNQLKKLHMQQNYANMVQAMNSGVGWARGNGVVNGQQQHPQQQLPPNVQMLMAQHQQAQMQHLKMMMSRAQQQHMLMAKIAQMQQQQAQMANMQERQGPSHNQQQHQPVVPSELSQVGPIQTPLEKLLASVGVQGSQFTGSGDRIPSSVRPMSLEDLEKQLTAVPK

Assay [2] has as its target T2, 6xHis-tagged SPN-2N (SPN-2 N-terminal fragment, 1-399 aa) (C. elegans, UniProt Q20898 1-399).
T2 sequence: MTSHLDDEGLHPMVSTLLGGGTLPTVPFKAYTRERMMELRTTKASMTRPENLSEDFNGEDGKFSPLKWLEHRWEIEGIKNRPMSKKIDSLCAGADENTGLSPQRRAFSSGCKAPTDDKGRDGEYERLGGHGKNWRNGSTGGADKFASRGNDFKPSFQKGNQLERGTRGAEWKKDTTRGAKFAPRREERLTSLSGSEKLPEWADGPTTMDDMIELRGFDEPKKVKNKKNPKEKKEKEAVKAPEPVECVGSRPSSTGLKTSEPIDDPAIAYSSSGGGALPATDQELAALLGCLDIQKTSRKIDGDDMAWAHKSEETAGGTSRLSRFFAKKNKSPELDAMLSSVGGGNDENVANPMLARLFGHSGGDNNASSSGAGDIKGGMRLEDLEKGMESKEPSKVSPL

The target of assay [3] is T1, 6xHis-tagged SPN-2 (full-length). This is another data set of the same source.

B1: GST–IFE-5 (natural protein)
chain: MTELTTPIYPLQRNWSWWFLNDDRNASWQDRLKKVYTFNTVPEFWAFYEAILPPSGLNDLCDYNVFRDDIQPKWEAPENWDGGRWLIIINKGKTPEVLDAVWLEILLALIGEQFGKDMESICGLVCNVRGQGSKISVWTKNCNDDDTNMRIGVVLKEKLMAAASKAHSKPLFDVIHYQTHRNCVKKTTSALKYKFSLKSIV
As to B1, the binding result in assay [1] and in assay [2] was “binds” in each case.

B2: GST–IFE-2 (natural protein)
chain: MSEEPVAAPGTISHPVYKLKRNWTWWYLNDERNKSWEERLKNVKTFSSVGEFWALHDSIKPPSGLNPPSDYNVFRDGIEPMWEVPQNQNGGRWLITIEKGRTPEIMDTIWTEILMAMIGEQFSDDIESLCGIVCNVRGKGSKISVWTTNSADDGANLRIGGVLKQVLNNASMIHQRPLYDVLRYEDHESCQKKTSSGVKAKHAIYAVEPREEKAPVPVSTETPATPAT
On to B2, for which the binding result in assay [1] and in assay [2] was “binds” each time.

B3: GST–IFE-1 (natural protein)
chain: MTETEQTTAPIYPLKRNWTWWYLNDERNKSWEDRLKKVYTFNTVSEFWALYDAIRPPSGLNALCDYNVFRDDIQPMWEVPENSNGGRWLIVIDKGKTPEMVDAIWLEILMALVGEQFGKDMESICGLVCNVRGKGSKISVWTKDCNDDETNMRIGVVLKEKLMAASKDHSKPLFDVIRYEDHESCQKKTSSVVKAKLSLHSSDAPVAEKSAV
Broadly, the Kd is a measure of binding affinity in units of concentration. The low end stands for a tighter complex, the high end for a looser complex. In the case of B3, in assay [3], the Kd turned out to be 33 nM. That is a double-digit nanomolar value.

Values taken from paper PMC2762092 (The Journal of Cell Biology, 2009).
